We go through 26 molecules from patent US20260098072A1, “METHODS OF STIMULATING APPETITE AND/OR INCREASING BODY WEIGHT USING NON-NATURALLY OCCURRING MELANOCORTIN RECEPTOR ANTAGONIST ANALOGS” (Endevica Bio, Inc., priority 2022, published 2026).

Several values for one entry are separate records, joined by “and”; a condition that tells them apart may be missing. Equal entries are not always repeated. Positions of bridges follow the written chain, without caps; N, C: chain ends. Non-standard residues stand in square brackets, D forms with d. Residues, ends and D or L forms follow the SMILES beside them. No end group written: not given here. d2Nal = N[C@H](Cc1ccc2ccccc2c1)C(=O)O; Hyp = O=C(O)[C@@H]1C[C@@H](O)CN1; Nle = CCCC[C@H](N)C(=O)O

One test concerns the target T1, human MC3R (Homo sapiens, UniProt P41968).
T1 construct: expressed in transfected cells; host or cells: HEK293/CRE-luc/MC3R
The experiment in a line: cAMP accumulation assay (HTRF), antagonist activity at MC3R. It is filed as cell-based. Particulars: for Emax / IC50: HEK293/CRE-luc/MC3R; for Emax: 0.1 nM to 1,000 nM, read-out: Max Activation %; for IC50: estimated from dose-response curve; for Hill Coefficient / Top (%): dose-response fit, MC3R. As to the method:
(§1) The antagonist activity of exemplary non-naturally occurring melanocortin analogs (SEQ ID NOs: 3, 4, 6, 9-11, 14, 15, and 291-309) at the melanocortin 3 receptor (MC3R) and melanocortin 4 (MC4R) receptor was measured via cAMP accumulation assay, according to the following procedure.
(§2) Recombinant cell lines shown in Table 1 were stimulated with melanocortin receptor antagonists and evaluated for cyclic adenosine monophosphate (cAMP) levels as a measurement of receptor activation. cAMP levels were quantified using Homogeneous Time-Resolved Fluorescence (HTRF). The stimulation and CAMP measurement were performed sequentially. First, the compound stimulated the G-protein coupled receptor (GPCR) which then induced downstream signaling, which was measured soon after. Cell lines and stimulated receptors used are detailed in Table 1.
(§3) Twenty-seven exemplary synthetic peptides were tested for antagonist activity at the human MC3R and MC4R at concentrations ranging from 0.1 nM to 1,000 nM. After stimulation, the level of cyclic adenosine monophosphate (CAMP) in each well was quantified via Homogenous Time-Resolved Fluorescence (HTRF) as a measurement of receptor activity. Dose-response curves and estimated IC50 values were then obtained for each antagonist peptide against the MC3R and MC4R. HS024 (TFA) and was used as a positive control for the antagonist activity of MC3R (FIG. 1A) and MC4R (FIG. 1B).

The target in the next test is T2, human MC4R (Homo sapiens, UniProt P32245).
T2 construct: expressed in transfected cells; host or cells: HEK293/MC4R/CRE-GFP
Description: cAMP accumulation assay (HTRF), antagonist activity at MC4R. It counts as cell-based. Particulars: for IC50: HEK293/MC4R/CRE-GFP, estimated from dose-response curve; for Hill Coefficient / Top (%): dose-response fit, MC4R. As to the method: as §1, §2, §3

For test [1], the target named is human melanocortin 3 receptor (MC3R) (human, UniProt P41968 1-323). The experiment in a line: cell-based or functional assay.
The target in test [2] is human melanocortin 4 receptor (MC4R) (human, UniProt P32245 1-332). The experiment in a line: cell-based or functional assay.

The IC50 is the concentration at which inhibition is half-maximal.

human melanocortin 4 receptor (MC4R), sequence (P32245 whole entry): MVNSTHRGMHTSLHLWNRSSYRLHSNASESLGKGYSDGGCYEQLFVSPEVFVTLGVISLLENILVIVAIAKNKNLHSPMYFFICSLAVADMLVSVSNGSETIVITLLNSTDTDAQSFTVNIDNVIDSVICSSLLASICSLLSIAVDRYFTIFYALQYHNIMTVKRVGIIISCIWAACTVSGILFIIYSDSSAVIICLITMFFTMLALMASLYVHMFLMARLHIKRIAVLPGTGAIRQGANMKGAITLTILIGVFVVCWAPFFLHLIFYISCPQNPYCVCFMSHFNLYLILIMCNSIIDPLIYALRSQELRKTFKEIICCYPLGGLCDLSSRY
T2 sequence (P32245 whole entry): as above
human melanocortin 3 receptor (MC3R), sequence (P41968 whole entry): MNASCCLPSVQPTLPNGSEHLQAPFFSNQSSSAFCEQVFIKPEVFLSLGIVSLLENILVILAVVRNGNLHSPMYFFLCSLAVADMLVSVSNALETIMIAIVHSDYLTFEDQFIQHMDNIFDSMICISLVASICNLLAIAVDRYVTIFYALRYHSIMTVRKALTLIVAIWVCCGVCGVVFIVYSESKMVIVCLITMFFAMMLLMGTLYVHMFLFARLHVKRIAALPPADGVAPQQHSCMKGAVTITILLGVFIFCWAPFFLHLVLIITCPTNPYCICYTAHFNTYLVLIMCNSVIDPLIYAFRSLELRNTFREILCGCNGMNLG
T1 sequence (P41968 whole entry): as above

For the molecule `CCCC[C@H](NC(C)=O)C(=O)N[C@@H](CC(=O)O)C(=O)N1CCC[C@H]1C(=O)N[C@H](Cc1ccc2ccccc2c1)C(=O)N[C@@H](CCCNC(=N)N)C(=O)N[C@@H](Cc1c[nH]c2ccccc12)C(=O)N[C@@H](CCCCN)C(=O)N[C@@H](C(=O)N1CCC[C@@H]1C(N)=O)C(C)C` [Peptide A1, Ac-Nle-Asp-Pro-Dnal(2′)-Arg-Trp-Lys-Dval-Dpro-NH2] (Ac-[Nle]DP[d2Nal]RWK[dV][dP]-NH2), on human MC3R, the Emax was found to be 84.4%, the 50% inhibitory concentration (IC50) was < 10 µM, the “Hill Coefficient” value was determined as 0.55 and the “Top (%)” value was found to be 1002.64%. In addition, on human MC4R, the IC50 was < 10 µM; the “Hill Coefficient” value was 0.43 and 0.32; the “Top (%)” value was 1195.94% and 652.03%.
On to VDPWRWKVP [Peptide C9], for which, in the test with human MC3R, the “Hill Coefficient” value came out at 2.95 and the “Top (%)” value is −64.92%. Also, in the test with human MC4R, the “Hill Coefficient” value stood at 0.64 and the “Top (%)” value is listed as 219.95%.
LDPFFRWKVP [Peptide B7]: in the test with human MC3R, the “Hill Coefficient” value is reported as −0.84 and the “Top (%)” value is 7754.77%. In addition, in the test with human MC4R, the “Hill Coefficient” value is −1.76 and the “Top (%)” value amounted to 516.09%.
VPFFRWVP [Peptide B6]: in the test with human MC3R, the “Hill Coefficient” value is 1.62 and the “Top (%)” value is 4.27%. For the same molecule, in the test with human MC4R, the “Hill Coefficient” value stood at 0.28 and the “Top (%)” value was found to be 37.93%.
The like results for VDPFFRWKVP [Peptide B9] were, in that order, 2.26, 1.22%, −19.71 and −0.55%.
Consider `CCCC[C@H](NC(C)=O)C(=O)N[C@H]1CC(=O)NCCCC[C@@H](C(=O)N[C@@H](C(=O)N2CCC[C@@H]2C(N)=O)C(C)C)NC(=O)[C@H](Cc2c[nH]c3ccccc23)NC(=O)[C@H](CCCNC(=N)N)NC(=O)[C@@H](Cc2ccc3ccccc3c2)NC(=O)[C@@H]2C[C@@H](O)CN2C1=O` [Peptide D3, Ac-Nle-c(Asp-Hyp-Dnal(2′)-Arg-Trp-Lys)-Dval-Dpro-NH2] (Ac-[Nle]D[Hyp][d2Nal]RWK[dV][dP]-NH2; lactam 2-7), for which, at human MC3R, the Emax came out at 111%; the half-maximal inhibitory concentration (IC50) was < 10 µM and 0.087 µM; the “Hill Coefficient” value was found to be 0.98; the “Top (%)” value turned out to be 113.20%. Also, the Emax at human MC4R (HEK293, HEK293/MC4R/CRE-GFP, 0.1 nM to 1,000 nM, read-out: Max Activation %) worked out at 117%. Besides, on human MC4R, the concentration for half-maximal inhibition (IC50) is < 10 µM and 0.0406 µM; the “Hill Coefficient” value came to 0.80; the “Top (%)” value is given as 119.03%.
In the case of LPWRWVP [Peptide C4], the “Hill Coefficient” value with human MC3R is −5.34. Further, in the test with human MC4R, the “Hill Coefficient” value was −7.31 and the “Top (%)” value is −1.97%.
Turning to “Ac-Nle-c(Asp-Pro-Trp-Arg-Trp-Lys)-Dval-Dpro-NH2 (Ac-[Nle]DPWRWK[dV][dP]-NH2; lactam 2-7; SMILES CCCC[C@H](NC(C)=O)C(=O)N[C@H]1CC(=O)NCCCC[C@@H](C(=O)N[C@@H](C(=O)N2CCC[C@@H]2C(N)=O)C(C)C)NC(=O)[C@H](Cc2c[nH]c3ccccc23)NC(=O)[C@H](CCCNC(=N)N)NC(=O)[C@H](Cc2c[nH]c3ccccc23)NC(=O)[C@@H]2CCCN2C1=O) [Peptide C1]”, in the test with human MC3R, the “Hill Coefficient” value is given as 0.23 and the “Top (%)” value stood at 6.49%. In the test with human MC4R, the “Hill Coefficient” value is given as 0.08 and the “Top (%)” value came to 51.32%.
IDPWRWKVP [Peptide C8]: in the test with human MC3R, the “Hill Coefficient” value is on record as −57.42 and the “Top (%)” value turned out to be 0.80%. Further, in the test with human MC4R, the “Hill Coefficient” value was found to be 10.57.
With “Leu-c(Asp-Pro-Trp-Arg-Trp-Lys)-Val-Pro (LDPWRWKVP; lactam 2-7) [Peptide C3]”, in the test with human MC3R, the “Hill Coefficient” value worked out at 49.34 and the “Top (%)” value stood at 3.18%. Moreover, in the test with human MC4R, the “Hill Coefficient” value was 0.44 and the “Top (%)” value turned out to be 9.36%.
Take “Ac-Leu-c(Asp-Pro-Trp-Arg-Trp-Lys)-Val-Pro-NH2 (Ac-LDPWRWKVP-NH2; lactam 2-7; SMILES CC(=O)N[C@@H](CC(C)C)C(=O)N[C@H]1CC(=O)NCCCC[C@@H](C(=O)N[C@H](C(=O)N2CCC[C@H]2C(N)=O)C(C)C)NC(=O)[C@H](Cc2c[nH]c3ccccc23)NC(=O)[C@H](CCCNC(=N)N)NC(=O)[C@H](Cc2c[nH]c3ccccc23)NC(=O)[C@@H]2CCCN2C1=O) [Peptide C2]”: in the test with human MC3R, the “Hill Coefficient” value was −0.48 and the “Top (%)” value was determined as 0.42%. Besides, in the test with human MC4R, the “Hill Coefficient” value amounted to 48.53 and the “Top (%)” value is on record as −2.85%.

B1: C5 (peptide)
peptide: IPWRWVP
On to B1, for which the entries for the “Max Activation %” value in test [1] and in test [2] were -0.49% and 2.47%, respectively.

B2: B9 (peptide)
peptide: VDPFFRWKVP
As for B2, the “Max Activation %” value is 1.08% in test [1] and -3.71% in test [2].

B3: C8 (peptide)
peptide: IDPWRWKVP
Turning to B3, the “Max Activation %” value in test [1] came to 0.47%; in test [2] it was 3.02%.

B4: C4 (peptide)
peptide: LPWRWVP
Take B4: the “Max Activation %” value in test [1] is -0.32%; in test [2] it was -6.88%.

B5: C2 (peptide)
peptide: Ac-LDPWRWKVP-NH2
modifications: lactam 2-7
SMILES: CC(=O)N[C@@H](CC(C)C)C(=O)N[C@H]1CC(=O)NCCCC[C@@H](C(=O)N[C@H](C(=O)N2CCC[C@H]2C(N)=O)C(C)C)NC(=O)[C@H](Cc2c[nH]c3ccccc23)NC(=O)[C@H](CCCNC(=N)N)NC(=O)[C@H](Cc2c[nH]c3ccccc23)NC(=O)[C@@H]2CCCN2C1=O
In the case of B5, the results for the “Max Activation %” value in test [1] and in test [2] were 0.27% and -3.3%, respectively.

B6: B6 (peptide)
peptide: VPFFRWVP
For B6, the figures for the “Max Activation %” value in test [1] and in test [2] were 5% and 15.4%, respectively.

B7: B5 (peptide)
peptide: IPFFRWVP
As to B7, the “Max Activation %” value in test [1] is 0.14%; in test [2] it was -0.16%.

B8: C9 (peptide)
peptide: VDPWRWKVP
Take B8: the figures for the “Max Activation %” value in test [1] and in test [2] were 1.24% and 5.89%, respectively.

B9: B8 (peptide)
peptide: IDPFFRWKVP
For B9, the “Max Activation %” value in test [1] came out at 4.86%; in test [2], 13.6%.

B10: C3 (peptide)
peptide: LDPWRWKVP
modifications: lactam 2-7
On to B10, for which the results for the “Max Activation %” value in test [1] and in test [2] were 3.32% and 8.07%, respectively.

B11: A2 (peptide)
peptide: Ac-[Nle]P[d2Nal]RW[dV][dP]-NH2
SMILES: CCCC[C@H](NC(C)=O)C(=O)N1CCC[C@H]1C(=O)N[C@H](Cc1ccc2ccccc2c1)C(=O)N[C@@H](CCCNC(=N)N)C(=O)N[C@@H](Cc1c[nH]c2ccccc12)C(=O)N[C@@H](C(=O)N1CCC[C@@H]1C(N)=O)C(C)C
Turning to B11, in test [1], the “Max Activation %” value stood at 7.92%.

B12: B7 (peptide)
peptide: LDPFFRWKVP
In the case of B12, the “Max Activation %” value is 1.43% in test [1] and -2.96% in test [2].

B13: C6 (peptide)
peptide: VPWRWVP
Consider B13, for which the figures for the “Max Activation %” value in test [1] and in test [2] were -0.8% and 6.41%, respectively.

B14: C7 (peptide)
peptide: LDPWRWKVP
With B14, the “Max Activation %” value in test [1] was 0.16%; in test [2], 5.86%.

B15: C1 (peptide)
peptide: Ac-[Nle]DPWRWK[dV][dP]-NH2
modifications: lactam 2-7
SMILES: CCCC[C@H](NC(C)=O)C(=O)N[C@H]1CC(=O)NCCCC[C@@H](C(=O)N[C@@H](C(=O)N2CCC[C@@H]2C(N)=O)C(C)C)NC(=O)[C@H](Cc2c[nH]c3ccccc23)NC(=O)[C@H](CCCNC(=N)N)NC(=O)[C@H](Cc2c[nH]c3ccccc23)NC(=O)[C@@H]2CCCN2C1=O
As for B15, the entries for the “Max Activation %” value in test [1] and in test [2] were 4.55% and 11.1%, respectively.
